Assay [1] deals with T1, human ERBB3 on transiently transfected HEK-293 cells (human, UniProt P21860 20-1342).
T1 construct: also called human ERBB3+ HEK-293 cells
In words: flow cytometry, human ERBB3-transfected HEK-293 cells, IgG1 titrated. As to the method:
(§1) Purified IgGs were tested in FACs for binding to human and rhesus monkey ERBB3 expressed on transiently transfected HEK-293 cells and HEK-293 wild-type cells. The IgG samples were titrated in three-fold serial dilutions starting at 500 nM to 0.008 nM. Binding of IgGs was detected with a mouse anti-human IgG conjugated to FITC. Results were analyzed by examining the Mean Fluorescence Intensity (MFI) of 10000 cells per sample in the BL-1 channel detector of a flow cytometer (Attune™ NxT Acoustic Focusing Cytometer, Invitrogen/ThermoFisher Scientific).
In general terms: Flow cytometry measures light scatter and fluorescence of single cells or particles in a stream.

Assay [2] concerns the target T2, rhesus monkey ERBB3 human Fc tagged recombinant protein (rhesus monkey (Macaca mulatta), UniProt P21860 20-643 (human entry), limits assumed).
T2 construct: also called rhesus ERBB3-Fc; rhERBB3
T2 chain: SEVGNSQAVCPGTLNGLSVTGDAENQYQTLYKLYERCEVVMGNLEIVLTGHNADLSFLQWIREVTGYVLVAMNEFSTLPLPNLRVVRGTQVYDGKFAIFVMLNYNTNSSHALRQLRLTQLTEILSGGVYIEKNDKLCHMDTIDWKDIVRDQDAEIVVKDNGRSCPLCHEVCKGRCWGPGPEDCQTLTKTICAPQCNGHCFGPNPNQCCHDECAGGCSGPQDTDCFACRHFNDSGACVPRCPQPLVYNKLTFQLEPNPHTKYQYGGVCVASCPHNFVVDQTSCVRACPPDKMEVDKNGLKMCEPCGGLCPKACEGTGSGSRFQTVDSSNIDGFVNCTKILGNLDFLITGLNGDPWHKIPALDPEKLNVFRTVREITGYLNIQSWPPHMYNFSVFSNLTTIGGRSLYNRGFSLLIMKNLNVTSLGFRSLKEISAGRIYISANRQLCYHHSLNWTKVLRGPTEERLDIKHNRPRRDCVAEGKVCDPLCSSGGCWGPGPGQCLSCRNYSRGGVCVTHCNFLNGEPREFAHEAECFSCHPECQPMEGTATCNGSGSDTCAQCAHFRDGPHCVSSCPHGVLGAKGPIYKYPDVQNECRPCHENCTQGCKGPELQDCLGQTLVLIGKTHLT
In words: direct binding ELISA on coated rhesus ERBB3-Fc, IgG1 titrated. As to the method:
(§2) Binding and cross-reactivity of the lead panel to the recombinant proteins was initially assessed by binding ELISA. The human ERBB3 human Fc tagged recombinant protein and the rhesus monkey ERBB3 human Fc tagged recombinant protein were coated to the surface of MaxiSorp™ flat-bottom 96 well plate at 1 μg/ml. The purified IgG samples were titrated in two fold serial dilutions starting from 500 nM to 0.008 nM and allowed to bind to the coated antigens. The Fabs were detected using mouse anti-c-myc antibody followed by donkey anti-mouse IgG conjugated to horseradish peroxidase. The IgGs were detected using the mouse anti-human IgG conjugated to horseradish peroxidase. Binding signals were visualized with 3,3′,5,5′-Tetramethylbenzidine Substrate Solution (TMB) and the absorbance measured at 450 nm.
A general note: ELISA stands for enzyme-linked immunosorbent assay.

In assay [3] the target is T3, human ERBB3 human Fc tagged recombinant protein (human, UniProt P21860 20-643).
T3 construct: also called human ERBB3-Fc; huERBB3
The assay can be described thus: direct binding ELISA on coated human ERBB3-Fc, IgG1 titrated. As to the method:
as §2

The target in assay [4] is T4, human ERBB3 His tagged, monomeric (human, UniProt P21860 20-643, biotinylated in the Alphascreen assays (sites not given)).
T4 construct: Used unbiotinylated as Biacore analyte and biotinylated in Alphascreen; treated as one molecule; also called human ERBB3-His (Acrobiosystems); biotinylated monomeric human ERBB3
In words: Alphascreen competition in solution, competitor h24C05 IgG1, biotinylated human ERBB3-His.

The target of assay [5] is T5, rhesus ERBB3 on transiently transfected HEK-293 cells (rhesus monkey (Macaca mulatta), UniProt P21860 20-1342 (human entry)).
T5 construct: also called rhesus ERBB3+ HEK-293 cells
T5 chain: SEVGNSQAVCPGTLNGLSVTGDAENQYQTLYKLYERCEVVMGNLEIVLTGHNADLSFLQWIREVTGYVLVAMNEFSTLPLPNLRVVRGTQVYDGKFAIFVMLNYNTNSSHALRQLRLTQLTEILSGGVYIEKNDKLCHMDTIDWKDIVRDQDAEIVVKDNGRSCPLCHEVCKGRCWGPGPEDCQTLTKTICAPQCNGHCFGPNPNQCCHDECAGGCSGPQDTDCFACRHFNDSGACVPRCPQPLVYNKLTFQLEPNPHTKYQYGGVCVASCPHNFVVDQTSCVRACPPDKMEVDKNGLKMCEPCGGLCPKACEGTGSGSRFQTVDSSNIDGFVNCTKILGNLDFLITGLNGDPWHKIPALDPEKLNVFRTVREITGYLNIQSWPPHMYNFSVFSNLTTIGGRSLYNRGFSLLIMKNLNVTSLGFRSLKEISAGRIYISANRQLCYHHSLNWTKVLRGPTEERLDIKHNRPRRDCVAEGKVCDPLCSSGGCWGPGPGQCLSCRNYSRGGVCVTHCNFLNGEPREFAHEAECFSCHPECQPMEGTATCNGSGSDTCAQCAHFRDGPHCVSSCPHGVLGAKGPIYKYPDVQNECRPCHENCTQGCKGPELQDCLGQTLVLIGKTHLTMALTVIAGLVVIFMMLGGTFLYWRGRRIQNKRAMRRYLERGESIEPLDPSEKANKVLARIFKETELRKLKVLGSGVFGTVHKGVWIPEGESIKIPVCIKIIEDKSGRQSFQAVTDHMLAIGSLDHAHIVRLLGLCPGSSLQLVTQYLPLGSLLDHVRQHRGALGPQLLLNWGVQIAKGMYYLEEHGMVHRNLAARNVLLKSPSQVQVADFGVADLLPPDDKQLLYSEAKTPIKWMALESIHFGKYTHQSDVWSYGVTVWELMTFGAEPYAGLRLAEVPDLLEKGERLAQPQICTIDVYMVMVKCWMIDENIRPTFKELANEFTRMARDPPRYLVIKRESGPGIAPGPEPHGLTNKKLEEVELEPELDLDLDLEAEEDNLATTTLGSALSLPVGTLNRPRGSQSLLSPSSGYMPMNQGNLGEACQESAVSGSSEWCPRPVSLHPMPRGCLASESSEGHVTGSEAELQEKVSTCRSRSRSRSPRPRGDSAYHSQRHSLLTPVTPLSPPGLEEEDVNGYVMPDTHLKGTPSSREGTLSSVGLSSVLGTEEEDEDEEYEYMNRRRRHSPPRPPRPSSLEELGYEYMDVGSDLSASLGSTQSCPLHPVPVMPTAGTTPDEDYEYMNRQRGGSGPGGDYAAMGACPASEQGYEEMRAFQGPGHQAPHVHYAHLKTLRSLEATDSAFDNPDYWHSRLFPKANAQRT
The assay can be described thus: flow cytometry, rhesus ERBB3-transfected HEK-293 cells, IgG1 titrated. As to the method: as §1

In the next assay the target is T6, human insulin (human, UniProt P01308 25-54; P01308 90-110, limits assumed).
T6 construct: Off-target protein in the development risk (polyreactivity) ELISA
In words: development risk ELISA on insulin.

T6 sequence (P01308 25-54 limits assumed, chain 1 of 2): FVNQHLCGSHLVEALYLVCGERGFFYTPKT
T6 sequence (P01308 90-110 limits assumed, chain 2 of 2): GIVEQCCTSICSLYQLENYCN

B1: 15G11-DI2 IgG1 (antibody, V domains shown)
VH: QVQLVESGGGLVKPGGSLRLSCAASGFTFSDYGMSWVRQAPGKGLEWVSTISDSGSYTYYPDSVKGRFTISRDNAKNSLYLQMNSLRAEDTAVYYCARELGDYDGFDYWGQGTLVTVSS
VL: DIQMTQSPSSLSASVGDRVTITCRASQEISTYLSWYQQKPGKAPKLLIYAASSLDTGVPSRFSGSGSGTDFTLTISSLQPEDFATYYCLQYDSTPYTFGGGTKVEIK
notes: Human IgG1 format, human Ckappa
As for B1, the binding result in assay [1], in assay [2], in assay [3], in assay [4] and in assay [5] was “binds” each time. In the assay with human insulin, this molecule gave a binding score of less than 10.

B2: 15G11-DI7 IgG1 (antibody, V domains shown)
VH: QVQLVESGGGLVKPGGSLRLSCAASGFTFSDYSMSWIRQAPGKGLEWVSTISDSGTYTYYPDSVKGRFTISRDNAKNSLYLQMNSLRAEDTAVYYCAREWGDYDGFDFWGQGTLVTVSS
VL: DIQMTQSPSSLSASVGDRVTITCRASQEISSYLSWYQQKPGKAPKLLIYAASSLDTGVPSRFSGSGSGTDFTLTISSLQPEDFATYYCLQYDSSPYTFGGGTKVEIK
notes: Human IgG1 format, human Ckappa; also called 15G11-D17
Take B2: the binding result in assay [1], in assay [2], in assay [3], in assay [4] and in assay [5] was “binds” in each case. In the assay with human insulin, this molecule showed a binding score of less than 10.

B3: 15G11-DI9 IgG1 (antibody, V domains shown)
VH: QVQLVESGGGLVKPGGSLRLSCAASGFTFSDYSMSWIRQAPGKGLEWVSTISDSGTYTYYPDSVKGRFTISRDNAKNSLYLQMNSLRAEDTAVYYCAREWGDYDGFDFWGQGTLVTVSS
VL: DIQMTQSPSSLSASVGDRVTITCRASQEISTYLSWYQQKPGKAPKLLIYAASTLQSGVPSRFSGSGSGTDFTLTISSLQPEDFATYYCLQYDSSPLTFGGGTKVEIK
notes: as for B1
As for B3, the binding result in assay [1], in assay [2], in assay [3], in assay [4] and in assay [5] was “binds” throughout. Besides, the binding score with human insulin was less than 10.

B4: 15G11-DI10 IgG1 (antibody, V domains shown)
VH: QVQLVESGGGLVKPGGSLRLSCAASGFTFSDYGMSWVRQAPGKGLEWVSTISDSGSYTYYPDSVKGRFTISRDNAKNSLYLQMNSLRAEDTAVYYCARELGDYDGFDYWGQGTLVTVSS
VL: DIQMTQSPSSLSASVGDRVTITCRASQEISSYLSWYQQKPGKAPKLLAYAASSLDSGVPSRFSGSGSGTDFTLTISSLQPEDFATYYCLQYDSTPYTFGGGTKVEIK
notes: as for B1
For B4, the binding result in assay [1], in assay [2], in assay [3], in assay [4] and in assay [5] was “binds” in each case.

B5: 15G11-DI8 IgG1 (antibody, V domains shown)
VH: QVQLVESGGGLVKPGGSLRLSCAASGFTFSDYSMSWIRQAPGKGLEWVSTISDSGTYTYYPDSVKGRFTISRDNAKNSLYLQMNSLRAEDTAVYYCAREWGDYDGFDFWGQGTLVTVSS
VL: DIQMTQSPSSLSASVGDRVTITCRASQEISTYLSWYQQKPGKAPKLLIYAASSLDTGVPSRFSGSGSGTDFTLTISSLQPEDFATYYCLQYDSSPYTFGGGTKVEIK
notes: as for B1
Regarding B5, the binding result in assay [1], in assay [2], in assay [3], in assay [4] and in assay [5] was “binds” each time. The molecule also gave a binding score with human insulin of less than 10.

B6: 15G11-DI3 IgG1 (antibody, V domains shown)
VH: QVQLVESGGGLVKPGGSLRLSCAASGFTFSDYGMSWVRQAPGKGLEWVSTISDSGSYTYYPDSVKGRFTISRDNAKNSLYLQMNSLRAEDTAVYYCARELGDYDGFDYWGQGTLVTVSS
VL: DIQMTQSPSSLSASVGDRVTITCRASQEISSYLSWYQQKPGKAPKLLIYAASSLDTGVPSRFSGSGSGTDFTLTISSLQPEDFATYYCLQYDSSPYTFGGGTKVEIK
notes: as for B1
Take B6: the binding result in assay [1], in assay [2], in assay [3], in assay [4] and in assay [5] was “binds” in each case. The binding score in the assay with human insulin is less than 10.

B7: 15G11-DI4 IgG1 (antibody, V domains shown)
VH: QVQLVESGGGLVKPGGSLRLSCAASGFTFSDYGMSWVRQAPGKGLEWVSTISDSGSYTYYPDSVKGRFTISRDNAKNSLYLQMNSLRAEDTAVYYCARELGDYDGFDYWGQGTLVTVSS
VL: DIQMTQSPSSLSASVGDRVTITCRASQEISTYLSWYQQKPGKAPKLLIYAASSLDTGVPSRFSGSGSGTDFTLTISSLQPEDFATYYCLQYDSSPYTFGGGTKVEIK
notes: as for B1
Turning to B7, the binding result in assay [1], in assay [2], in assay [3], in assay [4] and in assay [5] was “binds” each time. In the assay with human insulin, this molecule yielded a binding score of less than 10.

The values are drawn from patent US20200339702A1 (ULTRAHUMAN THIRTEEN, published 2020).
